In PMC5103296, “New structural insight of C-terminal region of Syntenin-1, enhancing the molecular dimerization and inhibitory function related on Syndecan-4 signaling” (Scientific Reports, 2016):
Where two headings read alike, the source gives them in different places.

Experiments:
[1] = biological target: syndecan-4-YFP (UniProt P34901); test: FRET or BRET; FRET after acceptor (YFP) photobleaching in REFs expressing syndecan-4-YFP and PKM-CFP
[2] = biological target: the molecule itself; test: SEC; HiLoad 16/600 Superdex 75; 20 mM sodium phosphate, 100 mM NaCl, 0.01% NaN3, 5 mM dithiothreitol, pH 7.0; mass from calibration with standards
[3] = biological target: the molecule itself; test: as above; remark: listed apart in the source
[4] = biological target: the molecule itself; test: crystal structure; syntenin-1 mixed with 4C2 at a 1:4 molar ratio; micro batch under oil; 0.2 M lithium sulfate monohydrate, 0.1 M Tris hydrochloride pH 8.5, 30% PEG 4000; 2.8 Å
[5] = biological target: T1, syntenin-1 PDZ2 construct containing the C-terminal tail (PDZ2C); test: SEC; HiLoad 16/600 Superdex 75; 20 mM sodium phosphate, 100 mM NaCl, 0.01% NaN3, 5 mM dithiothreitol, pH 7.0; mass from calibration with standards; details: both partners purified
T1 chain: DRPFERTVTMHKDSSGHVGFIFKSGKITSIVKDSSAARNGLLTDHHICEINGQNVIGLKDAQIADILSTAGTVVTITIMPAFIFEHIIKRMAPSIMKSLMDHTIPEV

syndecan-4-YFP, sequence (P34901 24-202): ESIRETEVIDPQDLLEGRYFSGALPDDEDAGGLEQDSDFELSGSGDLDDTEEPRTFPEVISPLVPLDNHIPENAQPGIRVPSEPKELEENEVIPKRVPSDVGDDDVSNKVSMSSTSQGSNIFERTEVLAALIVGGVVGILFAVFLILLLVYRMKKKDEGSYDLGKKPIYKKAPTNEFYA

## PKC catalytic domain (PKM)-CFP (domain or fragment)
[1]
  FRET efficiency: 6.39%

B1: His-tagged syntenin-1 (His-STN) (domain or fragment)
chain: AEIKQGIREVILCKDQDGKIGLRLKSVDNGIFVQLVQANSPASLVGLRFGDQVLQINGENCAGWSSDKAHKVLKQAFGEKITMTIRDRPFERTVTMHKDSSGHVGFIFKSGKITSIVKDSSAARNGLLTDHHICEINGQNVIGLKDAQIADILSTAGTVVTITIMPAFIFEHIIKRMAPSIMKSLMDHTIPEV
notes: syntenin-1 (STN), recombinant construct with PDZ1, PDZ2 and the C-terminal region; printed M.W 21.8 kDa; The residue numbers (H210, V211) fit the rat protein (surmised); also called STN-1; source: recombinant, purified (Ni-NTA)
[2]
  stoichiometry N: 2
[3]
  stoichiometry N: 2

B2: syndecan-4 cytoplasmic domain peptide corresponding to the C2 region (4C2) (peptide)
peptide: APTNEFYA
notes: C2 region of the cytoplasmic domain of rat syndecan-4, residues 195-202; Seen as a dimer in the crystal of the syntenin-1/4C2 complex; also called syndecan peptide; source: synthetic peptide (Anygen Inc.)
[4]
  binding result: binds

B3: syntenin-1 PDZ2 construct containing the C-terminal tail (PDZ2C) (domain or fragment)
chain: T1 chain
modifications: limits not given; same start as PDZ2 through the native C-terminus, consistent with the printed 11.7 kDa; homodimer by gel filtration / limits not given; same start as PDZ2 through the native …
[5]
  stoichiometry N: 2
